Drawing on the RNAGym collection of RNA variant scans (doi:10.1093/molbev/msab373), this text covers reverse-splicing fitness for 83 variants.

The chains are these.
B1: Azoarcus group I ribozyme (parent)
chain: GUGCCUUGCGCCGGGAAACCACGCAAGGGAUGGUGUCAAAUUCGGCGAAACCUAAGCGCCCGCCCGGGCGUAUGGCAACGCCGAGCCAAGCUUCGGCGCCUGCGCCGAUGAAGGUGUAGAGACUAGACGGCACCCACCUAAGGCAAACGCUAUGGUGAAGGCAUAGUCCAGGGAGUGGCGAAAGUCACACAAACCGG

The variants in this series derive from B1. As to the kind of experiment: reverse-splicing fitness (ratio to wild type); higher = more active; in vitro selection; Mg2+ level not given. The essentials: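 An in vitro group I ribozyme library with randomized positions was T7-transcribed and gel-purified. In triplicate, 10 pmol RNA in EPPS pH 7.5 was reacted with 50 pmoles of a 30-nt RNA substrate for 1 h at 37 °C across several added MgCl2 levels (1–48 mM), then stopped with EDTA. Products were reverse transcribed from a substrate-complementary primer, PCR-amplified and sequenced (HiSeq 4000). Fitness is a variant's read proportion after selection over that before, normalised to wild type.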
For the variant C82U A111U A120C C150G U176C, the reverse-splicing fitness came to 0.00725.
The result for C82U A111G A120G C150G C169G U176A reads 0.00604; that for A111C A120C A145C C150U C169U U176A, 0.0206.
On to A111U A145U C150A C169G U176A, for which the reverse-splicing fitness came out at 0.0129.
With C82A A111C A120U C150A C169G, the reverse-splicing fitness was found to be 0.00503.
Regarding C82G A111G A145C C150G C169U U176C, the reverse-splicing fitness was 0.013.
For the variant C82G A120U A145C C150U C169G U176A, the reverse-splicing fitness was determined as 0.00262.
The result for C82U A111G A120C A145U C150A C169U U176A reads 0.0139; that for C82G A120C A145U C169A, 0.00673; that for A111U A120U A145C C150G C169G U176G, 0.00228.
The result for A120C A145U C150A C169G U176G reads 0.00376; that for A111G A120C A145G C150A C169U U176G, 0.00549; that for A111C A120C A145C C150G C169G U176G, 0.00522.
In the case of C82U A111C A120U A145U C169A, the reverse-splicing fitness is 0.00238.
The result for C82A A120U A145C U176A reads 0.0307; that for C82U A111G A120C A145G C150U C169G U176C, 0.0188; that for C82U A111U A120U A145U C150A, 0.00625.
As to C82U A120G A145C C150A C169G U176A, the reverse-splicing fitness worked out at 0.0215.
Turning to C82U A120G C150G C169G U176C, the reverse-splicing fitness is 0.0046.
For C82U A111G A120G C169U, the reverse-splicing fitness turned out to be 0.0109.
C82U A120C A145C C150U C169A U176C: the reverse-splicing fitness was 0.00498.
The result for A111U A120C A145G C150A C169A U176G reads 0.00601; that for A111G A120U A145U C150U C169G, 0.0547.
In the case of C82A A111G A145U C150U C169U U176A, the reverse-splicing fitness turned out to be 0.014.
Consider A111G A120G C150G C169A, for which the reverse-splicing fitness amounted to 0.0164.
Take A111U U176C: the reverse-splicing fitness turned out to be 0.793.
In the case of C150G, the reverse-splicing fitness was determined as 0.42.
The result for C82G A111C A120C A145U U176C reads 0.0239; that for C82U A111G A145C C150G C169G U176G, 0.0047.
Turning to C82G A120C A145U C169G U176G, the reverse-splicing fitness was 0.00368.
As for A111U A120C A145U C150U C169A, the figure is 0.0105; as for C82A A111C C169U U176G, 0.00856; as for C82G A120G C150U U176G, 0.0083.
For the variant C82U A111U A120G C169G, the reverse-splicing fitness is 0.01.
Turning to A111C A120C A145U C150U U176A, the reverse-splicing fitness was 0.146.
In the case of C82U A145G C150U C169A U176C, the reverse-splicing fitness was determined as 0.0136.
C82A A111G A120G C150G C169U: the reverse-splicing fitness is 0.00856.
For the variant C82A A111G A120U A145G C150A U176C, the reverse-splicing fitness worked out at 0.00808.
The result for C82G A111U A120C A145G C169A U176A reads 0.0222; that for C82G A120G A145C C150U C169G U176A, 0.0238.
Regarding A111U A120U A145U C150A C169U U176C, the reverse-splicing fitness came to 0.00324.
In the case of A111C A145U C169G U176A, the reverse-splicing fitness is 0.0179.
With C82U A111U A120C A145U C169A, the reverse-splicing fitness was found to be 0.00631.
Take C82G A111C A120G A145G U176G: the reverse-splicing fitness was 0.00675.
As for C82U A111U A145C C150G C169A U176C, the figure is 0.0066; as for C82G A111U A120U C169U U176G, 0.00182; as for C82G A145U, 0.509.
Take C82U A111C A120G C150U C169A U176G: the reverse-splicing fitness is 0.00479.
Regarding C82A A120U A145C C150G C169G U176G, the reverse-splicing fitness is 0.00211.
Turning to C82A A111G A145C C169G, the reverse-splicing fitness was 0.00994.
In the case of C82A A145G C150U C169A U176G, the reverse-splicing fitness is 0.00665.
Turning to C82G A111C A145U C150U C169A U176C, the reverse-splicing fitness was determined as 0.0132.
The result for A111U A145C C150U C169A U176A reads 0.0117; that for C82G A111C A120C A145U C150A C169G U176C, 0.0169; that for C82U A120G A145G C150U C169U U176C, 0.0164.
The result for A111G A145C C150G C169G U176C reads 0.00562; that for C82A A111U A120U C150A C169A U176A, 0.00679; that for A120G A145G C150A U176C, 0.0809.
Regarding C82A C150G C169U, the reverse-splicing fitness was found to be 0.00995.
As for C82U A120U A145C C150G C169G U176C, the figure is 0.0019; as for C82G A120C A145C U176G, 0.0157; as for C82G A145U C169G U176C, 0.0115.
As for A111C A145C C150U U176G, the reverse-splicing fitness is 0.11.
As for C82G A111G A120G A145G C150U C169U, the figure is 0.0141; as for C82U A120G A145C C150A C169A U176G, 0.00326.
With C82U C150G U176C, the reverse-splicing fitness amounted to 0.0477.
Turning to C82G A111C A145U C150G, the reverse-splicing fitness worked out at 0.0245.
Turning to C82G A111G A120U A145U C169A U176G, the reverse-splicing fitness was found to be 0.0018.
Consider A111C C150G U176C, for which the reverse-splicing fitness was found to be 0.0763.
On to A111C A120U A145C C150A C169G U176A, for which the reverse-splicing fitness was determined as 0.00305.
On to C82G A111C A120U A145U C150A C169G U176G, for which the reverse-splicing fitness was 0.00223.
As for C82G A111C A120C A145G C150U C169A, the figure is 0.0101; as for C82G A111G A120G A145G C150G U176G, 0.00608; as for C82G A111C A120G C169G U176C, 0.0224.
Regarding C82A A111U A120U A145U C150G C169A U176G, the reverse-splicing fitness amounted to 0.00285.
As for A111U C150G C169A U176G, the figure is 0.00689.
In the case of A111C A120U A145U C150A C169A, the reverse-splicing fitness stood at 0.00263.
C82A A111U A120U A145C C150U C169G: the reverse-splicing fitness was 0.0029.
Take A120C A145C C150U C169G: the reverse-splicing fitness was 0.0109.
Consider C82U A111G A120U A145G C150U, for which the reverse-splicing fitness is 0.0339.
Consider C82A A120C A145G C169G, for which the reverse-splicing fitness came to 0.0102.
As to C82U A111U A120C A145C C150U C169A, the reverse-splicing fitness worked out at 0.00709.
For the variant C82U A111C A120G C150U C169G U176G, the reverse-splicing fitness was 0.00441.
